In patent US20140187491A1 (Bayer, published 2014):
Residue numbers refer to the chain shown, from its start. Ends that are not written are not given here.

T1: human LGR7/RXFP1 receptor (human, UniProt Q9HBX9 1-757)
T1 sequence (looked up): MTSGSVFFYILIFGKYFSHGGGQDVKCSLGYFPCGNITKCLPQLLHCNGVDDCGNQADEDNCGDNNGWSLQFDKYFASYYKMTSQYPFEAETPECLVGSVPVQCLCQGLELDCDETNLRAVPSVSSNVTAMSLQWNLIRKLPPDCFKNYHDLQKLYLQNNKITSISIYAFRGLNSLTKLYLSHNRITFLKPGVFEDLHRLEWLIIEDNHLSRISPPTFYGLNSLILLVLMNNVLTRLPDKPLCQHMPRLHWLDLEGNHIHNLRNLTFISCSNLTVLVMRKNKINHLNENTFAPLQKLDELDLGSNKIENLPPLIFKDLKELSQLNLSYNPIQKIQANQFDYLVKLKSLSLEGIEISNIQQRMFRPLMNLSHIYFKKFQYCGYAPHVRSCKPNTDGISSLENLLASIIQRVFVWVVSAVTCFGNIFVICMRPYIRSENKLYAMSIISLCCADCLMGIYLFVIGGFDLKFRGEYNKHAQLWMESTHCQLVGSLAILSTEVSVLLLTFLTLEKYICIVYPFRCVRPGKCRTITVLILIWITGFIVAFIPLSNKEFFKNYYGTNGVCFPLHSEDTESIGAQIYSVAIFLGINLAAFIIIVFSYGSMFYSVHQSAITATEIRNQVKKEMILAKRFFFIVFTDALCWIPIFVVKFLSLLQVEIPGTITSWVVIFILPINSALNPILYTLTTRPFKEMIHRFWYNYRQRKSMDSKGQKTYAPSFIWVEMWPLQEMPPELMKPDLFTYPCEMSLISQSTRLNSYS

B1: scR5 (ligand)
chain: EQKLISEEDLQLYSALANKCCHVGCTKRSLARFCGGGSGGGSGGGSWMEEVIKLCGRELVRAQIAICGMSTWSYPYDVPDYAHHHHHH
B2: scR4 (ligand)
chain: EQKLISEEDLQLYSALANKCCHVGCTKRSLARFCGGGSGGGSGSWMEEVIKLCGRELVRAQIAICGMSTWSYPYDVPDYAHHHHHH
B3: scR7 (ligand)
chain: EQKLISEEDLQLYSALANKCCHVGCTKRSLARFCGGGSGGSWMEEVIKLCGRELVRAQIAICGMSTWS
B4: scR10 (ligand)
chain: EQKLISEEDLQLYSALANKCCHVGCTKRSLARFCGGGSGGGSGGGSGGSWMEEVIKLCGRELVRAQIAICGMSTWS
B5: scR14 (ligand)
chain: DVLAGLSSSCCKWGCSKSEISSLCGGGSGGGSGRAAPYGVRLCGREFIRAVIFTCGGSRW
modifications: ends and bridges not checked; cysteine pairing not given here
B6: human Relaxin 2 (ligand)
chain 1: QLYSALANKCCHVGCTKRSLARFC
chain 2: SWMEEVIKLCGRELVRAQIAICGMSTWS
B7: scR17 (ligand)
chain: EQKLISEEDLDVLAGLSSSCCKWGCSKSEISSLCGGGSGGGSGSWMEEVIKLCGRELVRAQIAICGMSTWS
B8: human Relaxin 3 (ligand)
chain 1: DVLAGLSSSCCKWGCSKSEISSLC
chain 2: RAAPYGVRLCGREFIRAVIFTCGGSRW
B9: scR11 (ligand)
chain: QLYSALANKCCHVGCTKRSLARFCGGGSGCGGSGSWMEEVIKLCGRELVRAQIAICGMSTWS
B10: scR12 (ligand)
chain: B9 chain with C30K
B11: scR15 (ligand)
chain: EQKLISEEDLDVLAGLSSSCCKWGCSKSEISSLCGGGSGGGSGRAAPYGVRLCGREFIRAVIFTCGGSRW
B12: scR8 (ligand)
chain: EQKLISEEDLQLYSALANKCCHVGCTKRSLARFCGGGSGGGSGGGSSWMEEVIKLCGRELVRAQIAICGMSTWS
B13: scR9 (ligand)
chain: EQKLISEEDLQLYSALANKCCHVGCTKRSLARFCGGGSGGGSGGGSGSWMEEVIKLCGRELVRAQIAICGMSTWS
B14: scR3 (ligand)
chain: EQKLISEEDLQLYSALANKCCHVGCTKRSLARFCGGGSGGGSWMEEVIKLCGRELVRAQIAICGMSTWSYPYDVPDYAHHHHHH
B15: scR-Fc 11 (Fc fusion)
chain: HHHHHHPTCPTCHKCPVPELLGGPSVFIFPPKPKDILLISQNAKVTCVVVDVSEEEPDVQFSWFVNNVEVHTAQTQPREEQYNSTFRVVSALPIQHQDWMSGKEFKCKVNNKALPSPIEKTISKPKGLVRKPQVYVMGPPTEQLTEQTVSLTCLTSGFLPNDIGVEWTSNGHIEKNYKNTEPVMDSDGSFFMYSKLNVERSRWDSRAPFVCSVVHEGLHNHHVEKSISRPPGKGGSPQLYSALANKCCHVGCTKRSLARFCGGGSGGGSGSWMEEVIKLCGRELVRAQIAICGMSTWS
B16: scR-Fc 8 (Fc fusion)
chain: QLYSALANKCCHVGCTKRSLARFCGGGSGGGSGSWMEEVIKLCGRELVRAQIAICGMSTWSGGSPTCPTCHKCPVPELLGGPSVFIFPPKPKDILLISQNAKVTCVVVDVSEEEPDVQFSWFVNNVEVHTAQTQPREEQYNSTFRVVSALPIQHQDWMSGKEFKCKVNNKALPSPIEKTISKPKGLVRKPQVYVMGPPTEQLTEQTVSLTCLTSGFLPNDIGVEWTSNGHIEKNYKNTEPVMDSDGSFFMYSKLNVERSRWDSRAPFVCSVVHEGLHNHHVEKSISRPPGKHHHHHH
B17: scR-Var2 (ligand)
chain: GCGSGGQLYSALANKCCHVGCTKRSLARFCGGGSGGGSGSWMEEVIKLCGRELVRAQIAICGMSTWS
B18: scR-Fc 12 (Fc fusion)
chain: HHHHHHPTCPTCHKCPVPELLGGPSVFIFPPKPKDILLISQNAKVTCVVVDVSEEEPDVQFSWFVNNVEVHTAQTQPREEQYNSTFRVVSALPIQHQDWMSGKEFKCKVNNKALPSPIEKTISKPKGLVRKPQVYVMGPPTEQLTEQTVSLTCLTSGFLPNDIGVEWTSNGHIEKNYKNTEPVMDSDGSFFMYSKLNVERSRWDSRAPFVCSVVHEGLHNHHVEKSISRPPGKGGSGGSPQLYSALANKCCHVGCTKRSLARFCGGGSGGGSGSWMEEVIKLCGRELVRAQIAICGMSTWS
B19: scR-Fc 13 (Fc fusion)
chain: HHHHHHPTCPTCHKCPVPELLGGPSVFIFPPKPKDILLISQNAKVTCVVVDVSEEEPDVQFSWFVNNVEVHTAQTQPREEQYNSTFRVVSALPIQHQDWMSGKEFKCKVNNKALPSPIEKTISKPKGLVRKPQVYVMGPPTEQLTEQTVSLTCLTSGFLPNDIGVEWTSNGHIEKNYKNTEPVMDSDGSFFMYSKLNVERSRWDSRAPFVCSVVHEGLHNHHVEKSISRPPGKGGSGGSGGSPQLYSALANKCCHVGCTKRSLARFCGGGSGGGSGSWMEEVIKLCGRELVRAQIAICGMSTWS
B20: scR-Fc 17 (Fc fusion)
chain: QLYSALANKCCHVGCTKRSLARFCGGGSGGGSGSWMEEVIKLCGRELVRAQIAICGMSTWSGSGSGSPTCPTCHKCPVPELLGGPSVFIFPPKPKDILLISQNAKVTCVVVDVSEEEPDVQFSWFVNNVEVHTAQTQPREEQYNSTFRVVSALPIQHQDWMSGKEFKCKVNNKALPSPIEKTISKPKGLVRKPQVYVMGPPTEQLTEQTVSLTCLTSGFLPNDIGVEWTSNGHIEKNYKNTEPVMDSDGSFFMYSKLNVERSRWDSRAPFVCSVVHEGLHNHHVEKSISRPPGK
B21: scR-Fc 10 (Fc fusion)
chain: QLYSALANKCCHVGCTKRSLARFCGGGSGGGSGSWMEEVIKLCGRELVRAQIAICGMSTWSGGSGGSGGSPTCPTCHKCPVPELLGGPSVFIFPPKPKDILLISQNAKVTCVVVDVSEEEPDVQFSWFVNNVEVHTAQTQPREEQYNSTFRVVSALPIQHQDWMSGKEFKCKVNNKALPSPIEKTISKPKGLVRKPQVYVMGPPTEQLTEQTVSLTCLTSGFLPNDIGVEWTSNGHIEKNYKNTEPVMDSDGSFFMYSKLNVERSRWDSRAPFVCSVVHEGLHNHHVEKSISRPPGKHHHHHH
B22: scR-Var1 (ligand)
chain: QLYSALANKCCHVGCTKRSLARFCGGGSGGGSGSWMEEVIKLCGRELVRAQIAICGMSTWSGGSGCG
B23: scR-Fc 9 (Fc fusion)
chain: QLYSALANKCCHVGCTKRSLARFCGGGSGGGSGSWMEEVIKLCGRELVRAQIAICGMSTWSGGSGGSPTCPTCHKCPVPELLGGPSVFIFPPKPKDILLISQNAKVTCVVVDVSEEEPDVQFSWFVNNVEVHTAQTQPREEQYNSTFRVVSALPIQHQDWMSGKEFKCKVNNKALPSPIEKTISKPKGLVRKPQVYVMGPPTEQLTEQTVSLTCLTSGFLPNDIGVEWTSNGHIEKNYKNTEPVMDSDGSFFMYSKLNVERSRWDSRAPFVCSVVHEGLHNHHVEKSISRPPGKHHHHHH

target: T1, human LGR7/RXFP1 receptor; assay: cell-based or functional assay

Q: B1 was tested. Which “EC50 (M), CRE-luciferase reporter in CHO-CRE-LGR7 cells” value (from here on “EC50 (M), CRE-luciferase reporter”) did it give?
A: 3.7e-11 M

Q: How did the “EC50 (M), CRE-luciferase reporter” value turn out when B2 was run?
A: 3.4e-11 M

Q: B3 was tested. Which “EC50 (M), CRE-luciferase reporter” value did it give?
A: 5.3e-08 M

Q: With B4 as the binder, how does the “EC50 (M), CRE-luciferase reporter” value read?
A: 4.4e-08 M

Q: With B5 as the binder, how does the “EC50 (M), CRE-luciferase reporter” value read?
A: 5.9e-10 M

Q: For B6, which “EC50 (M), CRE-luciferase reporter” value is on record?
A: 2.6e-11 M

Q: How did the “EC50 (M), CRE-luciferase reporter” value turn out when B7 was run?
A: 1.3e-08 M

Q: For B8, which “EC50 (M), CRE-luciferase reporter” value is on record?
A: 2.3e-09 M

Q: With B9 as the binder, how does the “EC50 (M), CRE-luciferase reporter” value read?
A: 2.5e-08 M

Q: With B10 as the binder, how does the “EC50 (M), CRE-luciferase reporter” value read?
A: 3.6e-08 M

Q: With B11 as the binder, how does the “EC50 (M), CRE-luciferase reporter” value read?
A: 6.2e-10 M

Q: For B12, which “EC50 (M), CRE-luciferase reporter” value is on record?
A: 2.4e-08 M

Q: How did the “EC50 (M), CRE-luciferase reporter” value turn out when B13 was run?
A: 1.1e-07 M

Q: With B14 as the binder, how does the “EC50 (M), CRE-luciferase reporter” value read?
A: 7.7e-11 M

target: T1, human LGR7/RXFP1 receptor; assay: cell-based or functional assay; remark: another data set of the same source

Q: With B15 as the binder, how does the “EC50 (M), CRE-luciferase reporter” value read?
A: 1.2e-09 M

Q: How did the “EC50 (M), CRE-luciferase reporter” value turn out when B16 was run?
A: 7.2e-09 M

Q: How did the “EC50 (M), CRE-luciferase reporter” value turn out when B17 was run?
A: 4.2e-08 M

Q: With B6 as the binder, how does the “EC50 (M), CRE-luciferase reporter” value read?
A: 3.5e-11 M

Q: Which “EC50 (M), CRE-luciferase reporter” value does the source give for B18 here?
A: 9.5e-10 M

Q: For B19, which “EC50 (M), CRE-luciferase reporter” value is on record?
A: 8.9e-10 M

Q: With B20 as the binder, how does the “EC50 (M), CRE-luciferase reporter” value read?
A: 2.5e-09 M

Q: B21 was tested. Which “EC50 (M), CRE-luciferase reporter” value did it give?
A: 4.8e-09 M

Q: With B22 as the binder, how does the “EC50 (M), CRE-luciferase reporter” value read?
A: 1.1e-07 M

Q: Which “EC50 (M), CRE-luciferase reporter” value does the source give for B23 here?
A: 9.9e-09 M
